# The nanobody polyreactivity screen of Harvey et al. (2022)
# Experiment: yeast display, Sf9 membrane polyspecificity reagent, FACS + sequencing; frameworks hold sequencing errors
# Outline: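 After 36–48 hours of galactose induction, yeast (Saccharomyces cerevisiae BJ5465) displaying a synthetic nanobody library were stained at 4 °C for 1 hour with 10% biotinylated, detergent-solubilized Sf9 membrane reagent. Streptavidin microbeads enriched the stained cells before FACS sorting into low and high (top ~1%) gates on anti-HA and streptavidin fluorescence. Each clone's polyreactivity label reflects its gate of origin.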
row,Sequence,polyreactivity (PSR sort gate)
1,QVQLVESGGGLVQAGGSLRLSCAASGIIFAKYAMGWYRQAPGKERELVAGISRSGGRTYYADSVKGRFTISRDNAKNTVYLQMNSLKPEDTAVYYCAAVPHGTGGWWKYDYWGQGTQVTVSS,high polyreactivity
2,QVQLVESGGGLVQAGGSLRLSCAASGIIFANNDMGWSRQAPGKERELVAVITFSDGSTYYADSVKGRFTISRDNAKNTVYLQMNSLKPEDTAVYYCATRIRSYYYWGQGTQVTVSS,high polyreactivity
3,QVQLVESGGGLVQAGGSLRLSCAASGIIFAQYVMGWYRQAPGKERQLVAAIRTSGGRTYYADSVKGRFTISRDHAKITVYLQMISLKPVDTAVYYCAAYGKPTFRSVDYWGQGTQVTVSS,high polyreactivity
4,QVQLVESGGGLVQAGGSLRLSCAASGIIFASNAMGWYRQAPGKERELVAAISRSGGRTYYADSVKGRFTISRDNAKNTVYLQMNSLKPEDTAVYYCNAVQFGATAYDYWGQGTQVTVSS,high polyreactivity
5,QVQLVESGGGLVQAGGSLRLSCAASGIIFASYALGWYRQAPGKERELVAAISGGGSTYYADSVKGRFTISRDNAKNTVYLQMNSLKPEDTAVYYCNADVTLRLWAYYYYRYNYWGQGTQVTVSS,low polyreactivity
6,QVQLVESGGGLVQAGGSLRLSCAASGIIFAWYVKGWYRQAPGKERELVAAITQSGGSTFYADSVKWRFTISRDNAKNTVYLQMNSLKPEDTAVYYCNREYWGRGYYRVRGEYDYWGQGTQVTVSS,low polyreactivity
7,QVQLVESGGGLVQAGGSLRLSCAASGIIFAYYAMGWYRQAPGKERELVAAISWSGTSTYYADSVKGRFTISRDTATNTVYLQMNSLKPEDTAVYYCNAYGLYSDMDYWGQGTQVTVSS,high polyreactivity
8,QVQLVESGGGLVQAGGSLRLSCAASGIIFAYYAMGWYRQAPGKERELVAAMNRSGGTTYYADSVKGRFTISRDNAKNTLYLQMNSLKPEDTAVYYCNALTTWRYRYDYWGQGTQVTVSS,high polyreactivity
9,QVQLVESGGGLVQAGGSLRLSCAASGIIFAYYAMGWYRQAPGKERELVATITSGSNTNYADSVKGRFTISRDNAQNTVYLQMNSLKPEDTAVYYWGQGTQVTVSS,low polyreactivity
10,QVQLVESGGGLVQAGGSLRLSCAASGIIFAYYAMGWYRQAPGKERELVGTNYADSVKGRFTISRDNAKNTVYLQMNSLKPEDTAVYYCNTEWTSLSKSSLGGRYDHWGQGTQVTVSS,low polyreactivity
11,QVQLVESGGGLVQAGGSLRLSCAASGIIFDDYAMGWYRQAPGKERELVAAISRGGSTYYADSVKGRFTISRDNAKNTVYIQMNSLKPEDTAVYYCAAVVYTIYARYGYCGQGTQVTVSS,high polyreactivity
12,QVQLVESGGGLVQAGGSLRLSCAASGIIFDDYAMGWYRQAPGKERELVAVISSSGGNTYYADSVKGRFTISRDNAKNSVYLQMNSLKPEDTAVYYCAATYYYKSIYWFEYLGQGTQVTVSS,low polyreactivity
13,QVQLVESGGGLVQAGGSLRLSCAASGIIFDGNVMGWYRQAPGKEREFVASISISGGSTSYADSVKGRFTISRDNAKNTVYLQMNSLKPEDTAVYYCNTDVGYGRVWRWRYHGDYWGQGTQVTVSS,low polyreactivity
14,QVQLVESGGGLVQAGGSLRLSCAASGIIFDGYTMGWYRQAPGTERELVAAITTSGTSTYYADSVKGRFTISRDNAKNTVYLQMNSLKPEDTAVYYCNAVRRGLPVVGAYDYWGQGTQVTVSS,high polyreactivity
15,QVQLVESGGGLVQAGGSLRLSCAASGIIFDSYAMGWYRQAPGKERELVAAITSDSGRTYYADSVKGRFTISRDNAKKTVYLQMNSLKPEYTAVYYFAKRWDGPYDYWGQGTQVTVSS,low polyreactivity
16,QVQLVESGGGLVQAGGSLRLSCAASGIIFDSYVMGWYRQAPGKERELVAAISFRGGSTYYADSVKGRFTISRDNAKNTVYLQMNSLKPEDTAVYYCAAEGRGYTEYYWGQGTQVTVSS,high polyreactivity
17,QVQLVESGGGLVQAGGSLRLSCAASGIIFDVYAMGWYRPAPGKERELVAAISYGGGTTYYADSVKGRFTISRDNAKNTVYLQMNSLKPEDTAVYYCAADSYRSIGDDYWGQGTQVTVSS,high polyreactivity
18,QVQLVESGGGLVQAGGSLRLSCAASGIIFDVYAMGWYRQAPGKEREFVAAITTGGSTNYADSVKGRFTISRDNAKNSVYLQMNSLTPEDTAVYYCNADWDVGYGYWGQGTQVTVSS,low polyreactivity
19,QVQLVESGGGLVQAGGSLRLSCAASGIIFDVYAMGWYRQAPGKERELVAAISKRGGRTYYADSVKGRFTISRDNAKNTVYLQMNSLKPEDTAVYYCAADGQYKHFDYWGQGTQVTVSS,high polyreactivity
20,QVQLVESGGGLVQAGGSLRLSCAASGIIFDYYAMGWYRQAPGKERELVAGISQRGGSTYYADSVKGRFTISRDNAKITVYLQMNSLKPEDTAVYYWAAYTRSCEGHRGGYWGQGTQVTVSS,high polyreactivity
21,QVQLVESGGGLVQAGGSLRLSCAASGIIFDYYAMGWYRQAPGKVREFVATITSGGSTTYADSVKGRFTISRDNAKNTVYIEMNSLKPEDTAVYYCAARTYWFPDIYPGLGRDYWGQGTQVTVSS,low polyreactivity
22,QVQLVESGGGLVQAGGSLRLSCAASGIIFEGNAMGWYRQAPGKERELVAAISTSTGRTYYADSVKGRFTISRDNAKNTVYLQMNSLKPEDTAVYYCAAYIRTTRFDYWGQGTQVTVSS,high polyreactivity

row,Sequence,polyreactivity (PSR sort gate)
1,QVQLVESGGGLVQAGGSLRLSCAASGIIFEGNVMGWYRHAPAKERELVAAITSDTSTNYADSVKGRFTISRDNAKNTVYLQMNSLKPVDTAVYYFNAVICTDYYYSGTAEFYYWGQGTQVTVSS,low polyreactivity
2,QVQLVESGGGLVQAGGSLRLSCAASGIIFERYAMGWYRQAPGKERELVAAISKGGGSRTYYADSVQGRFTISRDTAKNTVYLQMNSLKPEDTAVYYCNADIWYGDMDYWGQGTQVTVSS,high polyreactivity
3,QVQLVESGGGLVQAGGSLRLSCAASGIIFEYYTIGWYRQATGKERELVASITYDGDSTYYADSVKGRFTISRDNAKNTVYLQMNSLKPEDTAVYYCAADYYSVYSSFGHYYWGQGTQVTVSS,low polyreactivity
4,QVQLVESGGGLVQAGGSLRLSCAASGIIFFIYAMGWYRQAPGKERELVARISIGGSTYYADSVKGRFTISRDNAKNTVYLQMNSLKPEDTAVYYCAARCGGLRATYHYWGQGTQVTVSS,low polyreactivity
5,QVQLVESGGGLVQAGGSLRLSCAASGIIFFKYAMGWYRQAPGKERELVARISWSGSTYADSVKGRFTISRDNAKNTVYLQMNSLKPEDTAVYYCAADSFTITADSDDYWGQGTQVTVSS,low polyreactivity
6,QVQLVESGGGLVQAGGSLRLSCAASGIIFFPYAMVWYRQAPGKEREFVAAITSRGGSTYYADSVKGRFTISRDNAKNTVYLQMNSLNPEDTAVYYFAADGWLWSFTGDGWWFDYWGQGTQVTVSS,low polyreactivity
7,QVQLVESGGGLVQAGGSLRLSCAASGIIFGDNAMGWYRQAPGKERELVAAIDSGGSTYYADSVKGRFTISRDNAKNTVYLQMNSLKPEDTAVYYCNAVTAFGYSYGGWDYDQYNYWGQGTQVTVSS,low polyreactivity
8,QVQLVESGGGLVQAGGSLRLSCAASGIIFGDNAMGWYRQAPGKERELVAAISSGGITYYADSVKGRFTISRDNAKNTVYLQMNSLKPEDTAVYYCAAGYYDFWYDYWGQGTQVTVSS,low polyreactivity
9,QVQLVESGGGLVQAGGSLRLSCAASGIIFGDNAMGWYRQATGKERELVAAIDYGDGSTYYADSVKGRFTISRDNENNTVYLQMNRLKPEDTAVYYCNADDGGPGVVLPTKEYDYWGQGTQVTVSS,low polyreactivity
10,QVQLVESGGGLVQAGGSLRLSCAASGIIFGENAMGWYRQAPGKERELVAAINSVGSTYYADSVKGRFTISRDNAKNTVYLQMNSLKPEDTAVYYCAAESWFLRWYRYDYWGQGTQVTVSS,low polyreactivity
11,QVQLVESGGGLVQAGGSLRLSCAASGIIFGFNAMRWYRQAPGKEREFVADITYSGGSTYYADSVKGRFTISRDNAKNTVYLHMNSLKPEDTAVYYCAADEVSFWGYIYDYWGQGTQVTVSS,high polyreactivity
12,QVQLVESGGGLVQAGGSLRLSCAASGIIFGFYAMGWYRQAPGKERELVAAITNDGGITNYADSVKGRFTISRDNAMNTVYLQMNSLKPEDTAVYYCAKDQWPWVRDSLYTLRYDYWGQGTQVTVSS,low polyreactivity
13,QVQLVESGGGLVQAGGSLRLSCAASGIIFGGYDMGWYRQAPGKERELVAAISWSGGSTYYADSVKGRFTISRDNAKNTVYLQMNSLKPEDTAVYYCNAVGRRNVDSSLNDYWGQGTQVTVSS,low polyreactivity
14,QVQLVESGGGLVQAGGSLRLSCAASGIIFGHYAMGWYRQAPGKERELVARITYSGTRTYYADSVKGRFTISRDNAKNTVYLQMNSLKPEDTAVYYCAAGYAYPRWVTAGNNWGQGTQVTVSS,high polyreactivity
15,QVQLVESGGGLVQAGGSLRLSCAASGIIFGKYAMGWYRPAPGKDRELVAAINYSGSTYYADSVKGRFTISRDNAKNTVYLQMNSLKPEDTAVYYCAARNRTFFQPTYYYWGQGTQVTVSS,high polyreactivity
16,QVQLVESGGGLVQAGGSLRLSCAASGIIFGPYVMGWYRQAPGKERELVATISRTGDTYYADSVKGRFTISRDNAKNTVYLQMNSLKPEDTAVYYCAVEWSAHKYYYWGQGTQVTVSS,low polyreactivity
17,QVQLVESGGGLVQAGGSLRLSCAASGIIFGQNAMGWYRQAPGKERELVAAITISGGSTYYADSVKGRFTISRDNAKNTVYLQMNSLKPEDTAVYYCAARRVTWKDIARGYRYGYWGQGTQVTVSS,low polyreactivity
18,QVQLVESGGGLVQAGGSLRLSCAASGIIFGRYAMGWYRQAPGKERELVATISRSGGTTYYADSVKGRFTISRDNAKNTVYLQMNSLKPEDTAVYYCAARWTSRYDYWGQGTQVTVSS,high polyreactivity
19,QVQLVESGGGLVQAGGSLRLSCAASGIIFGSNAMGWYRQAPGKERELVAAITSGGNTYYADSVKGRFTISRDNAKNTVYLQMNSLKPEDTAVYYCAARRPRRYGYWGQGTQVTVSS,high polyreactivity
20,QVQLVESGGGLVQAGGSLRLSCAASGIIFGSNAMGWYRQSPGKERELVAAISRNGGRTYYADSVKGRFTISRDNAKNTVYLQMNSLKPEDTAVYYCATRWPHYGGYYYWGQGTQVTVSS,high polyreactivity
21,QVQLVESGGGLVQAGGSLRLSCAASGIIFGTYDMGWNRQAPGKERELVAANTSGTSTNYADSVKGRFTISRDNAMNTVYLQMNSLKPEDTAVYYCAADVYLYYPYFGHRRYNYWGQGTQVTVSS,high polyreactivity
